The source of these data is patent publication WO2019024911A1 (dated 2019).

The target in assay [1] is T1, human B7H3 antigen for detection, 4Ig-B7H3 (SinoBiological cat#11188-H08H) (human, UniProt Q5ZPR3 29-461).
T1 construct: Commercial product; also called human 4Ig-B7H3
T1 sequence: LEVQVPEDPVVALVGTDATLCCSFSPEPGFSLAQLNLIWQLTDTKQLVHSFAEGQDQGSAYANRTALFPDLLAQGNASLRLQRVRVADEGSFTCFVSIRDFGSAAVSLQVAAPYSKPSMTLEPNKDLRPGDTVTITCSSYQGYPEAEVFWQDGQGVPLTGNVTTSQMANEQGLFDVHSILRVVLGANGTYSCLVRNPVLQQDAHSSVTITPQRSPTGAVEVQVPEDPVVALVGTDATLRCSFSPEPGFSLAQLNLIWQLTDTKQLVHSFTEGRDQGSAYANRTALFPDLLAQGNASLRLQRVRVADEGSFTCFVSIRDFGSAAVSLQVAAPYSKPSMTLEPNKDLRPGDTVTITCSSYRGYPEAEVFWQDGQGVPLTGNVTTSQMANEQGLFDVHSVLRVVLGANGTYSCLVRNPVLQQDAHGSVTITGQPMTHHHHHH
The assay is described as follows: SPR (Biacore T200), ADC captured on Protein A chip, antigen in flow, 1:1 Langmuir fit (column of the single value inferred).

Assay [2] deals with T1, human B7H3 antigen for detection, …. The assay can be described thus: ELISA, antigen coated at 1 ug/ml, HRP anti-human IgG Fc detection (column of the single value not certain). (In general: In an ELISA, binding on a coated surface is turned into a signal by an enzyme label.)
Assay [3] addresses T2, human B7H3 antigen for screening and detection, 2Ig-B7H3 (R&D cat#1949-B3-050/CF) (human, UniProt Q5ZPR3 29-245).
T2 construct: Commercial product; also called human 2Ig-B7H3
T2 sequence: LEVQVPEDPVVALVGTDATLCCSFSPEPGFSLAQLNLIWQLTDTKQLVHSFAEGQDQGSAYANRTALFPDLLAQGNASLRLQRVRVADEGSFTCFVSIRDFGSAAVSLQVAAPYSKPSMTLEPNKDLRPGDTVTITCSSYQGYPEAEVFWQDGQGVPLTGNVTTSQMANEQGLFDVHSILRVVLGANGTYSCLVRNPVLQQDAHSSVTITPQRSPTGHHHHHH
The assay is described as follows: SPR (Biacore T200), ADC captured on Protein A chip, antigen in flow, 1:1 Langmuir fit (column of the single value inferred). On the technique in general: In SPR one partner is held on a chip, and binding of the other changes the refractive index at the surface.

Assay [4] deals with T3, murine B7H3 antigen for screening and detection (R&D cat#1397-B3-050/CF) (mouse, UniProt Q8VE98 29-244).
T3 construct: Commercial product; also called mouse B7H3
T3 sequence: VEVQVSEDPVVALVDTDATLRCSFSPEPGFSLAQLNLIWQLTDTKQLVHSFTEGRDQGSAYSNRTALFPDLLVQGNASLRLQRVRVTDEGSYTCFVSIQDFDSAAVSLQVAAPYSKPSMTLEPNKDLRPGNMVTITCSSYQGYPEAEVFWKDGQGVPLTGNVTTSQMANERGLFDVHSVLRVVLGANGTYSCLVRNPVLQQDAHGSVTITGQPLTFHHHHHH
The assay is described as follows: ELISA, mouse B7H3 coated at 1 ug/ml, HRP anti-human IgG Fc detection.

Assay [5] concerns the target T1, human B7H3 antigen for detection, …. The assay is described as follows: ELISA, antigen coated at 1 ug/ml, HRP anti-human IgG Fc detection.
Assay [6] addresses T2, human B7H3 antigen for screening and …. The assay is described as above.
Assay [7] shares this target. The assay is described as follows: SPR (Biacore T200), antibody captured on Protein A chip, antigen in flow, 1:1 Langmuir fit.
Assay [8] has the same target. The assay can be described thus: SPR (Biacore T200), ADC captured on Protein A chip, antigen in flow, 1:1 Langmuir fit.
The target of assay [9] is T1, human B7H3 antigen for detection, …. The assay can be described thus: SPR (Biacore T200), antibody captured on Protein A chip, antigen in flow, 1:1 Langmuir fit.
The target is the same in assay [10]. The assay can be described thus: SPR (Biacore T200), ADC captured on Protein A chip, antigen in flow, 1:1 Langmuir fit.

B1: B7H3-h1702DS-cys-3024 (antibody-drug conjugate of h1702-DS with drug-linker 3024 on cysteines) (antibody, human IgG1, lambda)
heavy: not shown
light: DTVVTQEPSFSVSPGGTVTLTCGLSSGSVSTSHYPSWYQQTPGQAPRMLIYNTNTRSSGVPDRFSGSILGNKAALTITGAQADDESDYYCAIHVDRDIWVFGGGTKLTVLGQPKANPTVTLFPPSSEELQANKATLVCLISDFYPGAVTVAWKADGSPVKAGVETTKPSKQSNNKYAASSYLSLTPEQWKSHRSYSCQVTHEGSTVEKTVAPTEC
modifications: drug-linker 3024 on cysteine thiols after TCEP reduction; positions not given; average y = 3.55 per antibody
As to B1, the Kd (commonly the free concentration of one partner at which half of the binding sites on the other are occupied at equilibrium, for simple one-to-one binding) in assay [1] came out at 10.6 nM. Further, the EC50 (as a rule, the concentration needed to bring the measured effect to its halfway point) in [2] amounted to 0.3 nM.

B2: B7H3-h1703-L2-MC-MMAF (antibody-drug conjugate of h1703 with MC-MMAF) (antibody, human IgG1, kappa, V domains shown)
VH: QVQLQESGGGLVQPGGSLRLSCAASGFTFSSYAMSWVRQAPGKGLEWVSAISGSGGSTYYADSVKGRYTISRDNSKNTLYLQMNSLRAEDTAVYYCAKGVGPVHALDVWGQGTTVTVSS
VL: DIRLTQSPSSLSASVGDRVTITCRASQSISTYLNWYQQKPGKAPILLINAVSGLQSGVPSRFSGSGSGTHFTLTITSLQPEDFATYYCQQSYSTPMWTFGQGTKVEIKR
modifications: MC-MMAF coupled through a propylthiol linker (L2) to lysine residues of the antibody; positions not given; average y = 2.29 per antibody
notes: also called h1703-MMAF
Molecule B2 showed a Kd in assay [3] of 193 nM. Also, the half-maximal effective concentration (EC50) in assay [4] is 116 nM; in [5], 3.08 nM; in [6], 2.36 nM.

B3: h1703 antibody (fully human anti-B7H3 full-length antibody) (antibody, human IgG1, kappa, V domains shown)
VH: QVQLQESGGGLVQPGGSLRLSCAASGFTFSSYAMSWVRQAPGKGLEWVSAISGSGGSTYYADSVKGRYTISRDNSKNTLYLQMNSLRAEDTAVYYCAKGVGPVHALDVWGQGTTVTVSS
VL: DIRLTQSPSSLSASVGDRVTITCRASQSISTYLNWYQQKPGKAPILLINAVSGLQSGVPSRFSGSGSGTHFTLTITSLQPEDFATYYCQQSYSTPMWTFGQGTKVEIKR
notes: IgG1 heavy chain, kappa light chain; naked antibody; also called B7H3-h1703
Molecule B3 gave a Kd in [7] of 448 nM. Further, the EC50 was 86.7 nM in assay [4], 2.1 nM in [5] and 10.3 nM in assay [6].

B4: B7H3-h1703-L2-3024 (antibody-drug conjugate of h1703 with drug-linker 3024) (antibody, human IgG1, kappa, V domains shown)
VH: QVQLQESGGGLVQPGGSLRLSCAASGFTFSSYAMSWVRQAPGKGLEWVSAISGSGGSTYYADSVKGRYTISRDNSKNTLYLQMNSLRAEDTAVYYCAKGVGPVHALDVWGQGTTVTVSS
VL: DIRLTQSPSSLSASVGDRVTITCRASQSISTYLNWYQQKPGKAPILLINAVSGLQSGVPSRFSGSGSGTHFTLTITSLQPEDFATYYCQQSYSTPMWTFGQGTKVEIKR
modifications: drug-linker 3024 coupled through a propylthiol linker (L2) to lysine residues of the antibody; positions not given; average y = 1.62 per antibody
notes: also called h1703-3024
Turning to B4, the Kd in [8] turned out to be 219 nM. Also, the EC50 in [4] worked out at 115 nM; in assay [5], 4.97 nM; in assay [6], 15.1 nM.

B5: h1702 antibody (fully human anti-B7H3 full-length antibody) (antibody, human IgG1, lambda)
heavy: not shown
light: QTVVTQEPSFSVSPGGTVTLTCGLSSGSVSTSHYPSWYQQTPGQAPRMLIYNTNTRSSGVPDRFSGSILGNKAALTITGAQADDESDYYCAIHVDRDIWVFGGGTKLTVLGQPKANPTVTLFPPSSEELQANKATLVCLISDFYPGAVTVAWKADGSPVKAGVETTKPSKQSNNKYAASSYLSLTPEQWKSHRSYSCQVTHEGSTVEKTVAPTECS
notes: IgG1 heavy chain, lambda light chain; naked antibody expressed in HEK293E cells; also called B7H3-h1702
In the case of B5, the Kd was determined as 8.55 nM in assay [9] and 797 nM in [7]. In addition, the EC50 came out at 18.1 nM in assay [4], 0.16 nM in [5] and 0.11 nM in assay [6].

B6: B7H3-h1702-L2-3024 (antibody-drug conjugate of h1702 with drug-linker 3024) (antibody, human IgG1, lambda)
heavy: not shown
light: QTVVTQEPSFSVSPGGTVTLTCGLSSGSVSTSHYPSWYQQTPGQAPRMLIYNTNTRSSGVPDRFSGSILGNKAALTITGAQADDESDYYCAIHVDRDIWVFGGGTKLTVLGQPKANPTVTLFPPSSEELQANKATLVCLISDFYPGAVTVAWKADGSPVKAGVETTKPSKQSNNKYAASSYLSLTPEQWKSHRSYSCQVTHEGSTVEKTVAPTECS
modifications: drug-linker 3024 coupled through a propylthiol linker (L2) to lysine residues of the antibody; positions not given; average y = 2.05 per antibody
notes: also called h1702-3024
With B6, the Kd was 10.5 nM in assay [10] and 580 nM in [8]. The EC50 amounted to 131 nM in [4], 0.26 nM in [5] and 0.17 nM in assay [6].

B7: B7H3-h1702-cys-3024 (antibody-drug conjugate of h1702 with drug-linker 3024 on cysteines) (antibody, human IgG1, lambda)
heavy: not shown
light: QTVVTQEPSFSVSPGGTVTLTCGLSSGSVSTSHYPSWYQQTPGQAPRMLIYNTNTRSSGVPDRFSGSILGNKAALTITGAQADDESDYYCAIHVDRDIWVFGGGTKLTVLGQPKANPTVTLFPPSSEELQANKATLVCLISDFYPGAVTVAWKADGSPVKAGVETTKPSKQSNNKYAASSYLSLTPEQWKSHRSYSCQVTHEGSTVEKTVAPTECS
modifications: drug-linker 3024 on cysteine thiols after TCEP reduction; positions not given; average y = 3.5 per antibody
In [1], B7 had a dissociation constant (Kd) of 11.2 nM. Also, the 50% effective concentration (EC50) in assay [2] amounted to 0.29 nM.

B8: B7H3-h1702-L2-MC-MMAF (antibody-drug conjugate of h1702 with MC-MMAF) (antibody, human IgG1, lambda)
heavy: not shown
light: QTVVTQEPSFSVSPGGTVTLTCGLSSGSVSTSHYPSWYQQTPGQAPRMLIYNTNTRSSGVPDRFSGSILGNKAALTITGAQADDESDYYCAIHVDRDIWVFGGGTKLTVLGQPKANPTVTLFPPSSEELQANKATLVCLISDFYPGAVTVAWKADGSPVKAGVETTKPSKQSNNKYAASSYLSLTPEQWKSHRSYSCQVTHEGSTVEKTVAPTECS
modifications: MC-MMAF coupled through a propylthiol linker (L2) to lysine residues of the antibody; positions not given; average y = 1.76 per antibody
notes: also called h1702-MMAF
Consider B8, for which, in [3], binding was put at a Kd of 452 nM. The values for the EC50 in assay [4], in assay [5] and in [6] were 59 nM, 0.18 nM and 0.16 nM, respectively.

B9: B7H3-h1704-3-cys-3024 (antibody-drug conjugate of humanized h1704-3 with drug-linker 3024 on cysteines) (antibody, human IgG1, kappa, V domains shown)
VH: EVQLVESGGGLVKPGGSLRLSCAASGFTFSRYGMSWVRQAPGKGLEWVSAISSGGGSIYYPDTVKGRLTISRDNAKNTLYLQMNSLRAEDTAVYYCTRHYLLFEMDYWGQGTTVTVSS
VL: DIVLTQSPSFLSASVGDRVTITCKASQNVNTAVAWYQQKPGKAPKLLIFSASNRYTGVPSRFSGSGSGTDFTLTISSLQPEDVAAYFCQQYSSSLTFGGGTKLEIKR
modifications: drug-linker 3024 on cysteine thiols after TCEP reduction; positions not given; average y = 3.4 per antibody
notes: Antibody-drug conjugate made from antibody h1704-3 (IgG1, kappa)
Molecule B9 returned an equilibrium dissociation constant (Kd) in assay [1] of 0.778 nM. In [2], the midpoint of the response, the EC50, lay at 0.09 nM.
